Reference: the DeepSol protein solubility set

experiment: soluble on expression in E. coli; label from the status in PepcDB or PDB records

Sequence | soluble on expression in E. coli
RSTMKYIRTLSAEIGILEGGNLDYRITVTGSDEMAVLAKGLDSMRESIRDKISQEAELIRLNQSMITGLSHDLRTPLTALLIYTEILKNEIDADRKQMQKWVLKIDEKAHQIKDMADCILNYSLLKKAAGPTALRQEPFRSVFYDSLSELCVCLEQKGFEVRPSLAWEDREICADSKYITRILDNICSNIIKYASCGDPIRIESFYQTDGCGLVFENKKSANQTQAESTGIGVRNIREMMEEMGGCCEAEETSEDYRIRLTFACSPAV | not soluble
RTNQAGLELIGNAEGCRRDPYMCPAGVWTDGIGNTHGVTPGVRKTDQQIAADWEKNILIAERCINQHFRGKDMPDNAFSAMTSAAFNMGCNSLRTYYSKARGMRVETSIHKWAQKGEWVNMCNHLPDFVNSNGVPLRGLKIRREKERQLCLTGLVNEHHHHHH | soluble
RYHEFLGHFMNQFTSFGVAGAHGKTSTTGLLSHSMKNITDTSYLIGDGTGRGSANAQYFVFEADEYERHFMPYHPAYSIITNIDFDHPDYFTSIDDVFSAFDDYAKQVQKGLFVYGEDSNLRKITSNAPIYYYGFEENDDFMATDIIRTTTGSNFKVKHDGQIIGEFHVPAYGRHNILNATAVIANLYVAGFDMALVAEHLKTFSGV | not soluble
RYTNILVPVDSSDAAQAAFTEAVNIAQRHQANLTALYVVDDSAYHTPALDPVLSELLDAEAAHAKDAMRQRQQFVATTSAPNLKTEISYGIPKHTIEDYAKQHPEIDLIVLGATGTNSPHRVAVGSTTSYVVDHAPCNVIVIR | soluble
SAAAALRDQLTALLSSMFSQGLVDEQFQQLQMLQDEGGTPGFVSEVVTLFCDDADRIINEIATLLEQPVVNFDKVDAYVHQLKGSSASVGAQKVKFTCMQFRQFCQDKSRDGCLMALAVVRNDFYDLRNKFQTMLQLEQQIQAYDPKQQ | soluble
SAAETRNVAGAEAPPPQKRYYRQRAHSNPMADHTLRYPVKPEEMDWSELYPEFFAPLTQNQSHDDPKDKKEKRAQAQVEFADIGCGYGGLLVELSPLFPDTLILGLEIRVKVSDYVQDRIRALRAAPAGGFQNIACLRSNAMKHLPNFFYKGQLTKMFFLFPDPHFKRTKHKWRIISPTLLAEYAYVLRVGGLVYTITDVLELHDWMCTHFEEHPLFERVPLEDLSEDPVVGHLGTSTEEGKKVLRNGGKNFPAIFRRIQDPVLQAVTSQTSLPGH | soluble
SAAIYSLYIINKSGGLIFYKDCGTKGRMDTNDSLRVASLWHSMHAISQQLSPVNGCSGIELLEADTFDLHCFQSLPGTKFFVVCEPGTPHMESLLRYIYELYTDYVLKNPFYEIEMPIRCELFDINLTQAVQSDRVALLGR | soluble
SAALTDVQRLQSRVEELERWVYGPGGTRGSRKVADGLVKVQVALGNIASKRERVKILYKKIEDLIKYLDPEYIDRIAIPEASKLQFILAEEQFILSQVALLEQVNALVPVLDSASIKAVPEHAARLQRLAQIHIQQQDQCVAITEESKALLEGYNKTTMLLSKQFVQWDELLCQLEAAKQVKPAEE | soluble
SAASGEEDMSELSPAAAPNLDWYEKPEETHAPEVDLETVIPPAQEPSNPAEPFCPRDLVPVVFPGPVSQEDCCQFTCELLKHILYQRHQLPLPYEQLKHFYRKAPQAEDTARKKAWLATEARNRKCQQALAELESVLSHLRDFFARTLVPQVLILLGGNALSPKEFYELDLSRLAPFGVDQGLNTAACLRRLFRAIFLADPFSELQTPPLMGTIVMVQGHRDCGEDWFQPKLNYRVPSRGHKLTVTLSCGRPSVPAMASEDYIWFQAPVTLKGFHE | soluble
SADPGPDPESESESVFPREVGLFADSYSEKSQFCFCGHVLTITQNFGSRLGVAARVWDAALSLCNYFESQNVDFRGKKVIELGAGTGIVGILAALQGGDVTITDLPLALEQIQGNVQANVPAGGQAQVRALSWGIDHHVFPANYDLVLGADIVYLEPTFPLLLGTLQHLCRPHGTIYLASKMRKEHGTESFFQHLLPQHFQLELAQRDEDENVNIYRARHREPRPA | not soluble
SAEFRVRVSTGEAFGAGTWDKVSVSIVGTRGESPPLPLDNLGKEFTAGAEEDFQVTLPEDVGRVLLLRVHKAPPVLPLLGPLAPDAWFCRWFQLTPPRGGHLLFPCYQWLEGAGTLVLQEGTAKVSWADHHPVLQQQRQEELQARQEMYQWKAYNPGWPHCLDEKTVEDLELNIKYSTAKNANFYLQAGSAFAEMKIKGLLDRKGLWRSLNEMKRIFNFRRTPAAEHAFEHWQEDAFFASQFLNGLNPVLIRRCHYLPKNFPVTDAMVASVLGPGTSLQAELEKGSLFLVDHGILSGIQTNVINGKPQFSAAPMTLLYQSPGCGPLLPLAIQLSQTPGPNSPIFLPTDDKWDWLLAKTWVRNAEFSFHEALTHLLHSHLLPEVFTLATLRQLPHCHPLFKLLIPHTRYTLHINTLARELLIVPGQVVDRSTGIGIEGFSELIQRNMKQLNYSLLCLPEDIRTRGVEDIPGYYYRDDGMQIWGAVEHFVSEIIGIYYPSDESVQDDRELQAWVREIFSKGFLNQESSGIPSSLETREALVQYVTMVIFTCSAKHAAVSAGQFDSCAWMPNLPPSMQLPPPTSKGLATCEGFIATLPPVNATCDVILALWLLSKEPGDQRPLGTYPDEHFTEEAPRRSIATFQSRLAQISRGIQERNRGLVLPYTYLDPPLIENSVSI | soluble
SAEGEEEGGDVLISVGHANVLGYTLREFLQLLQHITIGTVLQIKVYRDFINIPEEWQEIYDLIPEAKFPVTSTPKKIELAKDESFTSSDDNENVDLDKRLQYYRYPWSTVHHPARRPISISRDWHGYKKKNHTISVGKDINCDVMIHRDDKKEVRAPSPYWIMVKQDNESSSSSTSSTSDAFWLEDCAQVEEGKAQLVSKVG | soluble
SAEHVLTMLNEHEVKFVDLRFTDTKGKEQHVTIPAHQVNAEFFEEGKMFDGSSIGGWKGINESDMVLMPDASTAVIDPFFADSTLIIRCDILEPGTLQGYDRDPRSIAKRAEDYLRATGIADTVLFGPEPEFFLFDDIRFGASISGSHVAIDDIEGAWNSSTKYEGGNKGHRPGVKGGYFPVPPVDSAQDIRSEMCLVMEQMGLVVEAHHHEVATAGQNEVATRFNTMTKKADEIQIYKYVVHNVAHRFGKTATFMPKPMFGDNGSGMHCHMSLAKNGTNLFSGDKYAGLSEQALYYIGGVIKHAKAINALANPTTNSYKRLVPGYEAPVMLAYSARNRSASIRIPVVASPKARRIEVRFPDPAANPYLCFAALLMAGLDGIKNKIHPGEPMDKNLYDLPPEEAKEIPQVAGSLEEALNALDLDREFLKAGGVFTDEAIDAYIALRREEDDRVRMTPHPVEFELYYSV | soluble
SAETEALSKLREDFRMQNKSVFILGASGETGRVLLKEILEQGLFSKVTLIGRRKLTFDEEAYKNVNQEVVDFEKLDDYASAFQGHDVGFCCLGTTRGKAGAEGFVRVDRDYVLKSAELAKAGGCKHFNLLSSKGADKSSNFLYLQVKGEVEAKVEELKFDRYSVFRPGVLLCDRQESRPGEWLVRKFFGSLPDSWARGHSVPVVTVVRAMLNNVVRPRDKQMELLENKAIHDLGKAHGSLKP | soluble
SAFQAAAARLGAPVSHDFCAISLSDLMTPWEVIEKRIEAAASADFVTAVYNPRSRDRYWQIHRFRELFLRHRSPSTPVGIVRNVTRKDESVVLTTLGEFDPDSLDMFTMMLVGNSTTF | not soluble
SAMLSSTMKIEALLTEKHINLNLGSSSKDEVIDTLIAMVADHDKVRDLKQLAEDVRKREREMSTGIGKNIGLPHAKTSAVTEPVLALATLSNEVDFESIDNQPVKIVFLLATPETMLAEHLKLLGRITRLAGRDDVRRKLIDAATPADVLELFKQEERDLPQI | not soluble
SAPAPPSGWSQVFLDDFDGAAGSSVNTANWQFDTGTSYPGGAGNWGTGEVESMTSSTSNVSLDGNGDLLITPRRDASGNWTSGRIETTRTDFQPPAGGKLRVEARLQMPNVTGDAAAGYWPAFWMLGAPFRGNYQNWPGVGELDIMENVQGLNKTWATMHCGTSPGGPCNETSGIGNSTACPNTTCQSGFHTYTMEWDRSVSPEAIRFSVDGVTYQTVTANQMDAATWTNATNHGFFVILNVAMGGGFPGAFGGGPTGATEPGHPMVVDYVQVTSLSPGL | soluble
SAQDLRMSYCYAKFEGGKCSSPKSRNHSKQECCCALKGEGWGDPCELCPTEPDEAFRQICPYGSGIIVGPDDSA | soluble
SAQTTDTGWMTNPQHPPVQTRFVLTGQQDPQAKTLTGYLDVKLTGDWKTYWRSPGEGGVAPSIDWQNSQNLSKVDWQWPYPQKFELLGIETLGYKGDTLFPMTLHIDNMSKPVTIDAVLTLSSCTTICVLTDYQIQLTFLPSELQIDEQVMFSYAQAVSNVPQPSPFIDVTQASWDANQSKLQIKLTNTQGWNQPQVLVDGVDEATRDYSFKLEGIHQEGNTVTASYLVDTWLGDVELSDQSLFVTIKDANLLAEETTQAIAEAIVDPLPSTSVVS | soluble
SASSIICQEHCQISGQAKIDILLVGDVTVGYLADTVQKLFANIAEVTITISDTKEAAALLDDCIFNMVLLKVPSSLSAEELEAIKLIRFGKKKNTHSLFVFIIPENFKGCISGHGMDIALTEPLTMEKMSNVVKYWTTCPSNTVKTENATGPEELGLPLQRSYSEHLGYFPTDLFACSESLRNGNGLELNASLSEFEKNKKISLLHSSKEKLRRLYRKHSSFCFW | soluble
SASVLKETAGLYETLKAEWNKKNPNLNKCGELLSKLKISLLELNFLPTTGTKLTKQQLILARDVLEIGALWSILKKDIPSFERYMAQLKCYYFDYKDELPESAYRHQLLGLNLLFLLSQNRVSEFHTELERLSAKDIQTNVYIRHPVSLEQYLMEGSYNKVFLAKGNIPAESYTFFIDTLLDTIRDEIAGCIEKAYEQIQFNEATRVLFFSSPKKMTDYAKKRNWTQSPDGYYSFSTQHQKTEEVTIPSTELAKQVIEYARQLEMIV | soluble
SATREWFVMNAQQTKLALESPPLFAVKKDDDKDHTCDTGEEPYALVGSPVFNPLEDYKREVVSIIDEYFSSGDVEVAASDLMDLGLSEYHPYFVKRLVSMAMDRGNKEKEKASVLLSRLYALVVSPDQIRVGFIRLLESVGDLALDIPDAVNVLALFIARAIVDEILPPVFLARAKKTLPHSSQGFQVILVSENSYLSAPHHAELVETKWGGSTHITVEETKRKISEFLNEYVENGDTREACRCIRELGVSFFHHEIVKSGLVLVMESRTSEPLILKLLKEATEEGLISSSQMAKGFSRVADSLDDLSLDIPSAKTLFESIVPKAIIGGWLDEDSFKERSDQNGGSENLRRFKKDAETIIQEYFLSDDIPELIRSLEDLGLPEYNPVFLKKLITLAMDRKNKEKEMASVFLASLHMEMFSTEDFINGFIMLLESAEDTALDILAASDELALFLARAVIDDVLAPLNLEEISNSLPPKSTGSETIRSARSLISARHAGERLLRSWGGGTGWAVEDAKDKIWKLLEEYEVGGVISEACRCIRDLGMPFFNHEVVKKALVMAMEKKNDRMLNLLQECFAEGIITTNQMTKGFGRVKDSLDDLSLDIPNAEEKFNSYVAHAEENGWLHRDFGCSTDS | soluble
SATSTTIAKHIGNSNPLIDHHLGADPVALTYNGRVYIYMSSDDYEYNSNGTIKDNSFANLNRVFVISSADMVNWTDHGAIPVAGANGANGGRGIAKWAGASWAPSIAVKKINGKDKFFLYFANSGGGIGVLTADSPIGPWTDPIGKPLVTPSTPGMSGVVWLFDPAVFVDDDGTGYLYAGGGVPGVSNPTQGQWANPKTARVIKLGPDMTSVVGSASTIDAPFMFEDSGLHKYNGTYYYSYCINFGGTHPADKPPGEIGYMTSSSPMGPFTYRGHFLKNPGAFFGGGGNNHHAVFNFKNEWYVVYHAQTVSSALFGAGKGYRSPHINKLVHNADGSIQEVAANYAGVTQISNLNPYNRVEAETFAWNGRILTEKSTAPGGPVNNQHVTSIQNGDWIAVGNADFGAGGARSFKANVASTLGGKIEVRLDSADGKLVGTLNVPSTGGAQTWREIETAVSGATGVHKVFFVFTGTGTGNLFNFDYWQFTQR | soluble
